Measurements published in PMC9919667.

Legend:
[1] = target: collagen IV (from human placenta) (human); test: ELISA; laminin, fibronectin or collagen IV (5 µg/mL, 100 µL/well) adsorbed on Maxisorp plates; galectin 0-10 µM, 1 h; peroxidase-conjugated anti-His6 antibody, TMB; apparent KD, one-site saturation fit
[2] = target: fibronectin (from human plasma) (human) (UniProt P02751); test: as above
[3] = target: laminin (from Engelbreth-Holm-Swarm sarcoma) (not stated (Engelbreth-Holm-Swarm sarcoma; detected with an anti-mouse-laminin antibody)); test: as above
[4] = target: asialofetuin (ASF) (bovine (from fetal calf serum)) (UniProt P12763); test: ELISA; ASF (5 µg/mL, 200 µL/well) adsorbed on Maxisorp plates; IMAC-purified galectin 0-30 µM in PBS, 1 h; peroxidase-conjugated anti-His6 antibody, TMB; apparent KD, one-site saturation fit; binding efficiency = Bmax/KD
[5] = target: asialofetuin (ASF) (bovine (from fetal calf serum)) (UniProt P12763); test: affinity chromatography on glycoprotein-Sepharose column; ASF or fetuin coupled to CNBr-activated Sepharose 4 Fast Flow (1 mL column); 0.2 µmol of galectin IMAC eluate applied, 15 min incubation, PBS pH 7.5, washed with 10 column volumes, eluted with a 0-0.3 M lactose gradient; eluted amount by Bradford assay; repeated three times
[6] = target: fetuin (bovine (from fetal calf serum)) (UniProt P12763); test: as above
[7] = target: HGal-1C2S (His6-Gal-1 C2S) (human) (UniProt P09382); test: ELISA; crosslinking assay: ASF adsorbed on Maxisorp plates, saturating galectin (50 µM Gal-1C2S, 25 µM Gal-3, 40 µM Gal-8N) bound for 1 h at room temperature, then laminin, fibronectin or collagen IV 0-50 µM for 1 h; detected with anti-ECM-protein antibodies and peroxidase-conjugated secondary antibodies; apparent KD, one-site saturation fit
[8] = target: HGal-3 (His6-Gal-3) (human) (UniProt P17931); test: as above
[9] = target: HGal-8N (His6-Gal-8N, N-terminal domain of galectin-8) (human) (UniProt O00214); test: as above
[10] = target: HSDsRedMGal-1C2S (His6-SNAP-DsRedM-Gal-1C2S) (human) (UniProt P09382); test: as above
[11] = target: HSYGal-3 (His6-SNAP-yellow fluorescent protein-Gal-3) (human) (UniProt P17931); test: as above
[12] = target: HSeGFPGal-8N (His6-SNAP-eGFP-Gal-8N) (human) (UniProt O00214); test: as above
Chain of HSeGFPGal-8N (His6-SNAP-eGFP-Gal-8N) (human) (O00214 1-160): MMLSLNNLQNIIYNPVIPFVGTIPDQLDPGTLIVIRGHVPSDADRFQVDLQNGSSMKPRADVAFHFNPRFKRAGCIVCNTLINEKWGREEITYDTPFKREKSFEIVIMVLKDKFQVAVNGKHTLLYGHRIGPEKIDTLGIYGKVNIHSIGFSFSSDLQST

Chain of asialofetuin (ASF) (bovine (from fetal calf serum)) (P12763 19-359): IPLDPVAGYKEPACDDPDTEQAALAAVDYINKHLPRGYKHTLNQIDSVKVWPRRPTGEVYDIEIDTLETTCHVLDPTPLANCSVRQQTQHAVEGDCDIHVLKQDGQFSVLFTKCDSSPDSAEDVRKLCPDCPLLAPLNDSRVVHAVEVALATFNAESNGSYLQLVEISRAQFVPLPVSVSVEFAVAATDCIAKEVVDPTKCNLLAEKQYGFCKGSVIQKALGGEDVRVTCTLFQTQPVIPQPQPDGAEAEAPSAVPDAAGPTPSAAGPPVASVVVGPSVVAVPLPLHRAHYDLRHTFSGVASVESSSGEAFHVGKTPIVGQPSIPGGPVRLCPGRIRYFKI
Chain of collagen IV (from human placenta) (human) (P02462 173-1669, chain 1 of 2): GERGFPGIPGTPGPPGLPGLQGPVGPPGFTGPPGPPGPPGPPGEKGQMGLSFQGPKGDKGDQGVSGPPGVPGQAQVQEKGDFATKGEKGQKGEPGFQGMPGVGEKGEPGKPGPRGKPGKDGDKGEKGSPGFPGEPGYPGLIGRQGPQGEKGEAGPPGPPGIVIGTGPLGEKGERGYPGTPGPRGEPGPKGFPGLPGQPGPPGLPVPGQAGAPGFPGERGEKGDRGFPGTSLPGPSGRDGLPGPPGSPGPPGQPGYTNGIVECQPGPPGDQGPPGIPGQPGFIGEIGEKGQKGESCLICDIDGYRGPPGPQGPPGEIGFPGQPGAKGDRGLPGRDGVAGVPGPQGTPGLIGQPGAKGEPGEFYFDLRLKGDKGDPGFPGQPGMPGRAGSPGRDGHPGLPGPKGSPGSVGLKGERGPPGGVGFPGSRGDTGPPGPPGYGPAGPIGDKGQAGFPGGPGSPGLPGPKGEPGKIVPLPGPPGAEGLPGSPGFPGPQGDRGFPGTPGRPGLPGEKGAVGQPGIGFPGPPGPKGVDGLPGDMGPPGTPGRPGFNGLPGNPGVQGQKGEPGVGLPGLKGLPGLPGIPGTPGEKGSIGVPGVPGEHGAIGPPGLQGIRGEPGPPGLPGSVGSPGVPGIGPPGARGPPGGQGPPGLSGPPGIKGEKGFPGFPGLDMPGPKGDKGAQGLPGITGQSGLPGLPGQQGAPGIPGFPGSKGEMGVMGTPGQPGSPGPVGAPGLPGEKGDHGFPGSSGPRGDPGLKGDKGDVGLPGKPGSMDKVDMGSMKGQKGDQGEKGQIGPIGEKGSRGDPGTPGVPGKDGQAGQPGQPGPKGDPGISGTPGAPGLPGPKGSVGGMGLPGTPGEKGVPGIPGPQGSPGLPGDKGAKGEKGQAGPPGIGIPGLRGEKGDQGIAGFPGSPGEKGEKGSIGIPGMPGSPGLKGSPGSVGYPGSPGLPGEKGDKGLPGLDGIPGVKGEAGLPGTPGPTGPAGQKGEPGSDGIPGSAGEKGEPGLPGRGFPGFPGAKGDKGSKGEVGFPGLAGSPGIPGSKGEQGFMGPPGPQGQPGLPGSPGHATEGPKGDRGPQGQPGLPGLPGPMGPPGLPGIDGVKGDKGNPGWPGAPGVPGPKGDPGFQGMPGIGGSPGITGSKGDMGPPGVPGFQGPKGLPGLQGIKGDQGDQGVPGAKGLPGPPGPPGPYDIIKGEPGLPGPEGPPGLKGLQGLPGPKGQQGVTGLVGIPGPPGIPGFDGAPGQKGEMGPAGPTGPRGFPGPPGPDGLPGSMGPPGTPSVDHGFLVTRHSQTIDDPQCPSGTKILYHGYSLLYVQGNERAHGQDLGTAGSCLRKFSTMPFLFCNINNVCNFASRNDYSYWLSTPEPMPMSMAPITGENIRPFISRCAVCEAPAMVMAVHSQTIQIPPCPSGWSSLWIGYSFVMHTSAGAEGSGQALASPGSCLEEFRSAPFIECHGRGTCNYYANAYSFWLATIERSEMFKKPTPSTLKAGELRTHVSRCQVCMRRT
Chain of collagen IV (from human placenta) (human) (P08572 184-1712, chain 2 of 2, further chain): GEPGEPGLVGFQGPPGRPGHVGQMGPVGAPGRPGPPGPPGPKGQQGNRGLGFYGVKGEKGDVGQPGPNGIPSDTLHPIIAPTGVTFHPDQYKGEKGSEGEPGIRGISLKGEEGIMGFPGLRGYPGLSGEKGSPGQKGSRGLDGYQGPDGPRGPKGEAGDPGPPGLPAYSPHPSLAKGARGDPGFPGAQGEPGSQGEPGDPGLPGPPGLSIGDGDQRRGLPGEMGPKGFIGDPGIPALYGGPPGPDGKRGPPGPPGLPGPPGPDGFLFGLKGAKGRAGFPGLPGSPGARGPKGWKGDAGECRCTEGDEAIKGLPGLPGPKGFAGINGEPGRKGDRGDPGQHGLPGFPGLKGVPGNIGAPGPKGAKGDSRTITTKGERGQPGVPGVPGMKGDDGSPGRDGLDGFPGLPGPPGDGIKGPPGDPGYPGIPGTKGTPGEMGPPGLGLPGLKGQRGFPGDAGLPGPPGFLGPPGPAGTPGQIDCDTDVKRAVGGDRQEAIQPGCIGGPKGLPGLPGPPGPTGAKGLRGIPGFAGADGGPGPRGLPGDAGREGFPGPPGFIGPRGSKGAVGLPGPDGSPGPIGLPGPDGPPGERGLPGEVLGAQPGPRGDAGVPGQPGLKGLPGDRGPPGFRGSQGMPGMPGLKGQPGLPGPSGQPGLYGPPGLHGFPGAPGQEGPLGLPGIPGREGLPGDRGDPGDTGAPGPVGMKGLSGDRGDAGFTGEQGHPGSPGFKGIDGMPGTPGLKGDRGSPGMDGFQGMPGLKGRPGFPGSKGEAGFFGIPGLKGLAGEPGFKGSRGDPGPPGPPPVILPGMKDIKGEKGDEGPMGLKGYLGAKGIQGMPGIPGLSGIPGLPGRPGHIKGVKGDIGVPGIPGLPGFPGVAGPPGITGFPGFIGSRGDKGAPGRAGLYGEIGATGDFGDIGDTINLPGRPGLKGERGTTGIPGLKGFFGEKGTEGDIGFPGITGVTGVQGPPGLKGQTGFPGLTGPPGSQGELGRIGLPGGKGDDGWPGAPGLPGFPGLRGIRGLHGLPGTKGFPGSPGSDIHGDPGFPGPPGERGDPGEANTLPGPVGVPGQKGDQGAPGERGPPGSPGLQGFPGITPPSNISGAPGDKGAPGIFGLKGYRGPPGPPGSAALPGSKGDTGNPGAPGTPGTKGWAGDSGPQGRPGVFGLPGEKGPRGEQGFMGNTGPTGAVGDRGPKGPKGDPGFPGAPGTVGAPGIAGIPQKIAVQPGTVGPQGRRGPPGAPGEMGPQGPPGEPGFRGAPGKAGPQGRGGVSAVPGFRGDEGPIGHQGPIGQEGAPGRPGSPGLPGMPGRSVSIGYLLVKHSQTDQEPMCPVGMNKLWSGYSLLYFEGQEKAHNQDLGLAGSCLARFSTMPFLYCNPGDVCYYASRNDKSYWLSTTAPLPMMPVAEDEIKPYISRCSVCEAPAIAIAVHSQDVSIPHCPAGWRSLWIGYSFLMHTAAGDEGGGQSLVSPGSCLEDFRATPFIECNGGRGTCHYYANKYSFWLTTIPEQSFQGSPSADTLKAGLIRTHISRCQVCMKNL
Chain of HGal-8N (His6-Gal-8N, N-terminal domain of galectin-8) (O00214 1-160): as the sequence (O00214 1-160) above
Chain of HSeGFPGal-8N (His6-SNAP-eGFP-Gal-8N) (O00214 1-160): as above
Chain of fetuin (bovine (from fetal calf serum)) (P12763 19-359): as the sequence (P12763 19-359) above
Chain of HGal-8N (His6-Gal-8N, N-terminal domain of galectin-8) (human) (O00214 1-160): as the sequence (O00214 1-160) above

| Kd [2] | Kd [3] | Kd [4] | apparent binding efficiency (Bmax/KD) [4] | Substance | also measured |
| --- | --- | --- | --- | --- | --- |
| 1970 nM | 420 nM | 500 nM | 1.6 µM⁻¹ | HGal-1C2S (His6-Gal-1 C2S) (from UniProt P09382 1-135) (natural protein) | Kd [1]: 1340 nM; percent of applied galectin bound and eluted [5]: 70%; percent of applied galectin bound and eluted [6]: 30% |
|  |  |  |  | HGal-8C (His6-Gal-8C, C-terminal domain of galectin-8) (from UniProt O00214 182-317) (domain or fragment) | percent of applied galectin bound and eluted [5]: 3% |
|  |  | 8800 nM | 0.1 µM⁻¹ | HDsRedMGal-1C2S (His6-DsRedM-Gal-1C2S, without SNAP-tag) (from UniProt P09382 1-135) (natural protein) |  |
| 520 nM | 180 nM |  |  | HGal-8N (His6-Gal-8N, N-terminal domain of galectin-8) (from UniProt O00214 1-160) (domain or fragment) |  |
| 60 nM | 40 nM |  |  | HSeGFPGal-8N (His6-SNAP-eGFP-Gal-8N) (from UniProt O00214 1-160) (domain or fragment) |  |
|  |  |  |  | laminin (from Engelbreth-Holm-Swarm sarcoma) (complex) | Kd [7]: 380 nM; Kd [8]: 270 nM; Kd [9]: 69.5 µM; Kd [10]: 370 nM; Kd [11]: 0.45 µM; Kd [12]: 270 nM |
| 110 nM | 110 nM | 600 nM | 1.4 µM⁻¹ | HSDsRedMGal-1C2S (His6-SNAP-DsRedM-Gal-1C2S) (from UniProt P09382 1-135) (natural protein) | Kd [1]: 140 nM; percent of applied galectin bound and eluted [5]: 4% |
| 430 nM | 130 nM |  |  | HGal-3 (His6-Gal-3) (from UniProt P17931 1-250) (natural protein) |  |
|  |  |  |  | fibronectin (from human plasma) (from UniProt P02751 32-2477) (natural protein) | Kd [8]: 5100 nM; Kd [11]: 10 µM |
|  |  | 800 nM | 1.1 µM⁻¹ | HSGal-1C2S (His6-SNAP-Gal-1C2S, without fluorescent protein) (from UniProt P09382 1-135) (natural protein) |  |
| 110 nM | 70 nM |  |  | HSYGal-3 (His6-SNAP-yellow fluorescent protein-Gal-3) (from UniProt P17931 1-250) (natural protein) |  |
